Measurements reported in the RNAGym collection of RNA variant scans (doi:10.1093/molbev/msab373).

B1: Azoarcus group I ribozyme (parent)
chain: GUGCCUUGCGCCGGGAAACCACGCAAGGGAUGGUGUCAAAUUCGGCGAAACCUAAGCGCCCGCCCGGGCGUAUGGCAACGCCGAGCCAAGCUUCGGCGCCUGCGCCGAUGAAGGUGUAGAGACUAGACGGCACCCACCUAAGGCAAACGCUAUGGUGAAGGCAUAGUCCAGGGAGUGGCGAAAGUCACACAAACCGG

Variants of: B1
Experiment: reverse-splicing fitness (ratio to wild type); higher = more active; in vitro selection; Mg2+ level not given
Outline: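 An in vitro group I ribozyme library with randomized positions was T7-transcribed and gel-purified. In triplicate, 10 pmol RNA in EPPS pH 7.5 was reacted with 50 pmoles of a 30-nt RNA substrate for 1 h at 37 °C across several added MgCl2 levels (1–48 mM), then stopped with EDTA. Products were reverse transcribed from a substrate-complementary primer, PCR-amplified and sequenced (HiSeq 4000). Fitness is a variant's read proportion after selection over that before, normalised to wild type.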

Variant	reverse-splicing fitness
GUGCCUUGCGCCGGGAAACCACGCAAGGGAUGGUGUCAAAUUCGGCGAAACCUAAGCGCCCGCCCGGGCGUAUGGCAACGCUGAGCCAAGCUUCGGCGCCUGCGCCGAUGAAGGUGUAGGGACUAGACGGCACCCACCUAAGGCAAACGCUAUGGUGAAGGCAUAGUCAAGGGAGCGGCGAAAGUCACACAAACCGG	0.0213
GUGCCUUGCGCCGGGAAACCACGCAAGGGAUGGUGUCAAAUUCGGCGAAACCUAAGCGCCCGCCCGGGCGUAUGGCAACGCUGAGCCAAGCUUCGGCGCCUGCGCCGAUGAAGGUGUAGGGACUAGACGGCACCCACCUAAGGCAAACGCUAUGGUGAAGGCAUAGUCAAGGGAGGGGCGAAAGUCACACAAACCGG	0.00354
GUGCCUUGCGCCGGGAAACCACGCAAGGGAUGGUGUCAAAUUCGGCGAAACCUAAGCGCCCGCCCGGGCGUAUGGCAACGCUGAGCCAAGCUUCGGCGCCUGCGCCGAUGAAGGUGUAGGGACUAGACGGCACCCACCUAAGGCAAACGCUAUGGUGAAGGCAUAGUCAAGGGAGAGGCGAAAGUCACACAAACCGG	0.0194
GUGCCUUGCGCCGGGAAACCACGCAAGGGAUGGUGUCAAAUUCGGCGAAACCUAAGCGCCCGCCCGGGCGUAUGGCAACGCUGAGCCAAGCUUCGGCGCCUGCGCCGAUGAAGGUGUAGGGACUAGACGGCACCCACCUAAGGCAAACGCUAUGGUGAAGGCAUAGUCUAGGGAGCGGCGAAAGUCACACAAACCGG	0.0176
GUGCCUUGCGCCGGGAAACCACGCAAGGGAUGGUGUCAAAUUCGGCGAAACCUAAGCGCCCGCCCGGGCGUAUGGCAACGCUGAGCCAAGCUUCGGCGCCUGCGCCGAUGAAGGUGUAGGGACUAGACGGCACCCACCUAAGGCAAACGCUAUGGUGAAGGCAUAGUCUAGGGAGGGGCGAAAGUCACACAAACCGG	0.0054
GUGCCUUGCGCCGGGAAACCACGCAAGGGAUGGUGUCAAAUUCGGCGAAACCUAAGCGCCCGCCCGGGCGUAUGGCAACGCUGAGCCAAGCUUCGGCGCCUGCGCCGAUGAAGGUGUAGGGACUAGACGGCACCCACCUAAGGCAAACGCUAUGGUGAAGGCAUAGUCUAGGGAGAGGCGAAAGUCACACAAACCGG	0.0244
GUGCCUUGCGCCGGGAAACCACGCAAGGGAUGGUGUCAAAUUCGGCGAAACCUAAGCGCCCGCCCGGGCGUAUGGCAACGCUGAGCCAAGCUUCGGCGCCUGCGCCGAUGAAGGUGUAGGGACUAGACGGCACCCACCUAAGGCAAACGUUAUGGUGAAGGCAUAGUCCAGGGAGAGGCGAAAGUCACACAAACCGG	0.0106
GUGCCUUGCGCCGGGAAACCACGCAAGGGAUGGUGUCAAAUUCGGCGAAACCUAAGCGCCCGCCCGGGCGUAUGGCAACGCUGAGCCAAGCUUCGGCGCCUGCGCCGAUGAAGGUGUAGGGACUAGACGGCACCCACCUAAGGCAAACGUUAUGGUGAAGGCAUAGUCCAGGGAGGGGCGAAAGUCACACAAACCGG	0.00504
GUGCCUUGCGCCGGGAAACCACGCAAGGGAUGGUGUCAAAUUCGGCGAAACCUAAGCGCCCGCCCGGGCGUAUGGCAACGCUGAGCCAAGCUUCGGCGCCUGCGCCGAUGAAGGUGUAGGGACUAGACGGCACCCACCUAAGGCAAACGUUAUGGUGAAGGCAUAGUCCAGGGAGCGGCGAAAGUCACACAAACCGG	0.0148
GUGCCUUGCGCCGGGAAACCACGCAAGGGAUGGUGUCAAAUUCGGCGAAACCUAAGCGCCCGCCCGGGCGUAUGGCAACGCUGAGCCAAGCUUCGGCGCCUGCGCCGAUGAAGGUGUAGUGACUAGACGGCACCCACCUAAGGCCAACGAUAUGGUGAAGGCAUAGUCCAGGGAGUGGCGAAAGUCACACAAACCGG	0.00884
GUGCCUUGCGCCGGGAAACCACGCAAGGGAUGGUGUCAAAUUCGGCGAAACCUAAGCGCCCGCCCGGGCGUAUGGCAACGCUGAGCCAAGCUUCGGCGCCUGCGCCGAUGAAGGUGUAGGGACUAGACGGCACCCACCUAAGGCAAACGUUAUGGUGAAGGCAUAGUCUAGGGAGAGGCGAAAGUCACACAAACCGG	0.0237
GUGCCUUGCGCCGGGAAACCACGCAAGGGAUGGUGUCAAAUUCGGCGAAACCUAAGCGCCCGCCCGGGCGUAUGGCAACGCUGAGCCAAGCUUCGGCGCCUGCGCCGAUGAAGGUGUAGGGACUAGACGGCACCCACCUAAGGCAAACGUUAUGGUGAAGGCAUAGUCUAGGGAGGGGCGAAAGUCACACAAACCGG	0.00509
GUGCCUUGCGCCGGGAAACCACGCAAGGGAUGGUGUCAAAUUCGGCGAAACCUAAGCGCCCGCCCGGGCGUAUGGCAACGCUGAGCCAAGCUUCGGCGCCUGCGCCGAUGAAGGUGUAGGGACUAGACGGCACCCACCUAAGGCAAACGUUAUGGUGAAGGCAUAGUCUAGGGAGCGGCGAAAGUCACACAAACCGG	0.0185
GUGCCUUGCGCCGGGAAACCACGCAAGGGAUGGUGUCAAAUUCGGCGAAACCUAAGCGCCCGCCCGGGCGUAUGGCAACGCUGAGCCAAGCUUCGGCGCCUGCGCCGAUGAAGGUGUAGUGACUAGACGGCACCCACCUAAGGCCAACGCUAUGGUGAAGGCAUAGUCCAGGGAGUGGCGAAAGUCACACAAACCGG	0.153
GUGCCUUGCGCCGGGAAACCACGCAAGGGAUGGUGUCAAAUUCGGCGAAACCUAAGCGCCCGCCCGGGCGUAUGGCAACGCUGAGCCAAGCUUCGGCGCCUGCGCCGAUGAAGGUGUAGGGACUAGACGGCACCCACCUAAGGCAAACGCUAUGGUGAAGGCAUAGUCGAGGGAGGGGCGAAAGUCACACAAACCGG	0.00332
GUGCCUUGCGCCGGGAAACCACGCAAGGGAUGGUGUCAAAUUCGGCGAAACCUAAGCGCCCGCCCGGGCGUAUGGCAACGCUGAGCCAAGCUUCGGCGCCUGCGCCGAUGAAGGUGUAGGGACUAGACGGCACCCACCUAAGGCAAACGCUAUGGUGAAGGCAUAGUCGAGGGAGCGGCGAAAGUCACACAAACCGG	0.0246
GUGCCUUGCGCCGGGAAACCACGCAAGGGAUGGUGUCAAAUUCGGCGAAACCUAAGCGCCCGCCCGGGCGUAUGGCAACGCUGAGCCAAGCUUCGGCGCCUGCGCCGAUGAAGGUGUAGGGACUAGACGGCACCCACCUAAGGCAAACGCUAUGGUGAAGGCAUAGUCGAGGGAGAGGCGAAAGUCACACAAACCGG	0.0215
GUGCCUUGCGCCGGGAAACCACGCAAGGGAUGGUGUCAAAUUCGGCGAAACCUAAGCGCCCGCCCGGGCGUAUGGCAACGCUGAGCCAAGCUUCGGCGCCUGCGCCGAUGAAGGUGUAGGGACUAGACGGCACCCACCUAAGGCAAACGCUAUGGUGAAGGCAUAGUCGAGGGAGUGGCGAAAGUCACACAAACCGG	0.0242
GUGCCUUGCGCCGGGAAACCACGCAAGGGAUGGUGUCAAAUUCGGCGAAACCUAAGCGCCCGCCCGGGCGUAUGGCAACGCUGAGCCAAGCUUCGGCGCCUGCGCCGAUGAAGGUGUAGGGACUAGACGGCACCCACCUAAGGCAAACGCUAUGGUGAAGGCAUAGUCAAGGGAGUGGCGAAAGUCACACAAACCGG	0.0184
GUGCCUUGCGCCGGGAAACCACGCAAGGGAUGGUGUCAAAUUCGGCGAAACCUAAGCGCCCGCCCGGGCGUAUGGCAACGCUGAGCCAAGCUUCGGCGCCUGCGCCGAUGAAGGUGUAGGGACUAGACGGCACCCACCUAAGGCAAACGCUAUGGUGAAGGCAUAGUCUAGGGAGUGGCGAAAGUCACACAAACCGG	0.0177
GUGCCUUGCGCCGGGAAACCACGCAAGGGAUGGUGUCAAAUUCGGCGAAACCUAAGCGCCCGCCCGGGCGUAUGGCAACGCUGAGCCAAGCUUCGGCGCCUGCGCCGAUGAAGGUGUAGGGACUAGACGGCACCCACCUAAGGCAAACGUUAUGGUGAAGGCAUAGUCUAGGGAGUGGCGAAAGUCACACAAACCGG	0.0137
GUGCCUUGCGCCGGGAAACCACGCAAGGGAUGGUGUCAAAUUCGGCGAAACCUAAGCGCCCGCCCGGGCGUAUGGCAACGCUGAGCCAAGCUUCGGCGCCUGCGCCGAUGAAGGUGUAGUGACUAGACGGCACCCACCUAAGGCCAACGAUAUGGUGAAGGCAUAGUCAAGGGAGUGGCGAAAGUCACACAAACCGG	0.00144
GUGCCUUGCGCCGGGAAACCACGCAAGGGAUGGUGUCAAAUUCGGCGAAACCUAAGCGCCCGCCCGGGCGUAUGGCAACGCUGAGCCAAGCUUCGGCGCCUGCGCCGAUGAAGGUGUAGUGACUAGACGGCACCCACCUAAGGCCAACGAUAUGGUGAAGGCAUAGUCGAGGGAGUGGCGAAAGUCACACAAACCGG	0.00203
GUGCCUUGCGCCGGGAAACCACGCAAGGGAUGGUGUCAAAUUCGGCGAAACCUAAGCGCCCGCCCGGGCGUAUGGCAACGCUGAGCCAAGCUUCGGCGCCUGCGCCGAUGAAGGUGUAGUGACUAGACGGCACCCACCUAAGGCAAACGCUAUGGUGAAGGCAUAGUCCAGGGAGUGGCGAAAGUCACACAAACCGG	0.174
GUGCCUUGCGCCGGGAAACCACGCAAGGGAUGGUGUCAAAUUCGGCGAAACCUAAGCGCCCGCCCGGGCGUAUGGCAACGCUGAGCCAAGCUUCGGCGCCUGCGCCGAUGAAGGUGUAGGGACUAGACGGCACCCACCUAAGGCAAACGCUAUGGUGAAGGCAUAGUCCAGGGAGGGGCGAAAGUCACACAAACCGG	0.00399
GUGCCUUGCGCCGGGAAACCACGCAAGGGAUGGUGUCAAAUUCGGCGAAACCUAAGCGCCCGCCCGGGCGUAUGGCAACGCUGAGCCAAGCUUCGGCGCCUGCGCCGAUGAAGGUGUAGGGACUAGACGGCACCCACCUAAGGCAAACGCUAUGGUGAAGGCAUAGUCCAGGGAGAGGCGAAAGUCACACAAACCGG	0.0132
GUGCCUUGCGCCGGGAAACCACGCAAGGGAUGGUGUCAAAUUCGGCGAAACCUAAGCGCCCGCCCGGGCGUAUGGCAACGCUGAGCCAAGCUUCGGCGCCUGCGCCGAUGAAGGUGUAGGGACUAGACGGCACCCACCUAAGGCAAACGCUAUGGUGAAGGCAUAGUCCAGGGAGCGGCGAAAGUCACACAAACCGG	0.0175
GUGCCUUGCGCCGGGAAACCACGCAAGGGAUGGUGUCAAAUUCGGCGAAACCUAAGCGCCCGCCCGGGCGUAUGGCAACGCUGAGCCAAGCUUCGGCGCCUGCGCCGAUGAAGGUGUAGUGACUAGACGGCACCCACCUAAGGCCAACGAUAUGGUGAAGGCAUAGUCAAGGGAGCGGCGAAAGUCACACAAACCGG	0.00171
GUGCCUUGCGCCGGGAAACCACGCAAGGGAUGGUGUCAAAUUCGGCGAAACCUAAGCGCCCGCCCGGGCGUAUGGCAACGCUGAGCCAAGCUUCGGCGCCUGCGCCGAUGAAGGUGUAGUGACUAGACGGCACCCACCUAAGGCCAACGAUAUGGUGAAGGCAUAGUCAAGGGAGGGGCGAAAGUCACACAAACCGG	0.00165
GUGCCUUGCGCCGGGAAACCACGCAAGGGAUGGUGUCAAAUUCGGCGAAACCUAAGCGCCCGCCCGGGCGUAUGGCAACGCUGAGCCAAGCUUCGGCGCCUGCGCCGAUGAAGGUGUAGUGACUAGACGGCACCCACCUAAGGCCAACGAUAUGGUGAAGGCAUAGUCAAGGGAGAGGCGAAAGUCACACAAACCGG	0.00177
